# In US20240287138A1, “CYCLIC PEPTIDES FOR INHIBITING TNF RECEPTOR 1 ACTIVITY” (Merck Sharp & Dohme LLC, priority 2023, published 2024):
# Numbered stars: 1 amine (or outer) side, 2 acyl side, 3 side chain; on linkers, the order of the positions; unused ones are H or OH. Bridge positions count the residues as written; N and C are the ends. Square brackets hold non-standard residues; d marks the D form. Primed or numbered codes have the meaning given here. bhcLeu = (1R,3S)-3-aminocyclopentane-1-carboxylic acid, O=C([C@@H]1CC[C@H](N[*:1])C1)[*:2]; FX1 = N5-(Pyridin-3-yl)-L-glutamine, O=C(CC[C@H](N[*:1])C(=O)[*:2])Nc1cccnc1; Ala(2-carboxypyrimidin-5-yl) = N[C@@H](Cc1cnc(C(=O)O)nc1)C(=O)O; Trp(βS-Me,7-OMe) = COc1cccc2c([C@H](C)[C@H](N)C(=O)O)c[nH]c12; NEtdA = N-ethyl-D-alanine, CCN([C@H](C)C(=O)[*:2])[*:1]; Trp(βS-Me) = C[C@@H](c1c[nH]c2ccccc12)[C@H](N)C(=O)O; Trp(7-Cl) = N[C@@H](Cc1c[nH]c2c(Cl)cccc12)C(=O)O; Phe(4-CONH2) = NC(=O)c1ccc(C[C@H](N)C(=O)O)cc1; Phe(4-COOH) = N[C@@H](Cc1ccc(C(=O)O)cc1)C(=O)O; Trp(7-aza) = N[C@@H](Cc1c[nH]c2ncccc12)C(=O)O; Phe(4-CH2NH2) = NCc1ccc(C[C@H](N)C(=O)O)cc1; Pip(5R-OH) = O=C(O)[C@@H]1CC[C@@H](O)CN1; αMeW = C[C@](N)(Cc1c[nH]c2ccccc12)C(=O)O; Ala(2-furyl) = N[C@@H](Cc1ccco1)C(=O)O; 2Nal = N[C@@H](Cc1ccc2ccccc2c1)C(=O)O; Val(3-OH) = CC(C)(O)[C@H](N)C(=O)O; Pip(4-aza) = O=C(O)[C@@H]1CNCCN1; 3Pal = N[C@@H](Cc1cccnc1)C(=O)O; 4Pal = N[C@@H](Cc1ccncc1)C(=O)O; NMeE = CN[C@@H](CCC(=O)O)C(=O)O; dHyp = O=C(O)[C@H]1C[C@H](O)CN1; NMeS = CN[C@@H](CO)C(=O)O; αMeS = C[C@](N)(CO)C(=O)O; Nle = CCCC[C@H](N)C(=O)O; Pip2c = not defined here; Ahp′ = not defined here; Dap = NC[C@H](N)C(=O)O; Sar = CNCC(=O)O
# Target: C'-terminally 6His-tagged human soluble TNFR1 (sTNFR1, residues 1-211) (human)
# Sequence (chain, as listed by the source): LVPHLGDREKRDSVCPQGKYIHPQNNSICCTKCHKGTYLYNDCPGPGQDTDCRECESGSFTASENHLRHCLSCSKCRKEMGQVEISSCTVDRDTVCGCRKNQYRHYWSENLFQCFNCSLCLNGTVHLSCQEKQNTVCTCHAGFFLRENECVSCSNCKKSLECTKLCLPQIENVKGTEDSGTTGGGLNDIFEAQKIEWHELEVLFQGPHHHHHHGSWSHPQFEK
# Test: TR-FRET displacement of biotinylated peptide SEQ ID NO. 1 from sTNFR1-6His
Binder,IC50,Kd^app
"{CH2CO}-[Nle][4Pal][Pip2c][Trp(7-aza)][NMeE]N[4Pal][Trp(7-Cl)][αMeS][Phe(4-COOH)][TyrOCF3][Sar][Trp(βS-Me,7-OMe)]C-NH2 (thioether N-14; reading uncertain; also: printed as cyclo(ClAc-Nle-4Pal-Pip2c-Trp7az-NMeE-N-4Pal-Trp7Cl-aMeS-Phe4COOH-TyrOCF3-Sar-SbMeW7OMe-C)-NH2) [SEQ ID NO. 158]",1.79 nM,
{CH2CO}-[Ahp′][4Pal]S[Trp(βS-Me)][dP]N[Phe(4-COOH)][2Nal][αMeS][Phe(4-COOH)]H[Sar][αMeW]C-NH2 (thioether N-14; reading uncertain; also: printed as cyclo(ClAc-Ahp-4Pal-S-SbMeW-dP-N-Phe4COOH-2Nal-aMeS-Phe4COOH-H-Sar-aMeW-C)-NH2) [SEQ ID NO. 237],13 nM,
"cyclo([bhcLeu][Nle][4Pal][Pip(5R-OH)]W[dHyp]N[Phe(4-COOH)][Trp(7-Cl)][αMeS][Phe(4-CONH2)][Ala(2-carboxypyrimidin-5-yl)][Sar][Trp(βS-Me,7-OMe)]) (SMILES CCCC[C@@H]1NC(=O)[C@@H]2CC[C@@H](C2)NC(=O)[C@H]([C@@H](C)c2c[nH]c3c(OC)cccc23)NC(=O)CN(C)C(=O)[C@H](Cc2cnc(C(=O)O)nc2)NC(=O)[C@H](Cc2ccc(C(N)=O)cc2)NC(=O)[C@](C)(CO)NC(=O)[C@H](Cc2c[nH]c3c(Cl)cccc23)NC(=O)[C@H](Cc2ccc(C(=O)O)cc2)NC(=O)[C@H](CC(N)=O)NC(=O)[C@H]2C[C@H](O)CN2C(=O)[C@H](Cc2c[nH]c3ccccc23)NC(=O)[C@@H]2CC[C@@H](O)CN2C(=O)[C@H](Cc2ccncc2)NC1=O) [SEQ ID NO. 191]",,0.18 nM
"cyclo([bhcLeu][Nle][4Pal][Pip(4-aza)]W[NMeE]N[4Pal][Trp(7-Cl)][αMeS][Phe(4-COOH)]H[Sar][Trp(βS-Me,7-OMe)]) (SMILES CCCC[C@@H]1NC(=O)[C@@H]2CC[C@@H](C2)NC(=O)[C@H]([C@@H](C)c2c[nH]c3c(OC)cccc23)NC(=O)CN(C)C(=O)[C@H](Cc2c[nH]cn2)NC(=O)[C@H](Cc2ccc(C(=O)O)cc2)NC(=O)[C@](C)(CO)NC(=O)[C@H](Cc2c[nH]c3c(Cl)cccc23)NC(=O)[C@H](Cc2ccncc2)NC(=O)[C@H](CC(N)=O)NC(=O)[C@H](CCC(=O)O)N(C)C(=O)[C@H](Cc2c[nH]c3ccccc23)NC(=O)[C@@H]2CNCCN2C(=O)[C@H](Cc2ccncc2)NC1=O) [SEQ ID NO. 178]",,0.29 nM

# Results, then the binder that gave them:
IC50,Kd^app,Binder
0.9 nM,,"{CH2CO}-[Nle][4Pal][Pip(4-aza)]W[dP]N[Ala(2-furyl)][Trp(7-Cl)][αMeS][Phe(4-COOH)]Y[Sar][Trp(βS-Me,7-OMe)]C-NH2 (thioether N-14; SMILES CCCC[C@@H]1NC(=O)CSC[C@@H](C(N)=O)NC(=O)[C@H]([C@@H](C)c2c[nH]c3c(OC)cccc23)NC(=O)CN(C)C(=O)[C@H](Cc2ccc(O)cc2)NC(=O)[C@H](Cc2ccc(C(=O)O)cc2)NC(=O)[C@](C)(CO)NC(=O)[C@H](Cc2c[nH]c3c(Cl)cccc23)NC(=O)[C@H](Cc2ccco2)NC(=O)[C@H](CC(N)=O)NC(=O)[C@H]2CCCN2C(=O)[C@H](Cc2c[nH]c3ccccc23)NC(=O)[C@@H]2CNCCN2C(=O)[C@H](Cc2ccncc2)NC1=O) [SEQ ID NO. 236]"
0.5 nM,0.42 nM,"{CH2CO}-[Nle][4Pal][Pip(5R-OH)]W[NEtdA]N[4Pal][Trp(7-Cl)][αMeS][Phe(4-CONH2)]Y[Sar][Trp(βS-Me,7-OMe)]C-NH2 (thioether N-14; SMILES CCCC[C@@H]1NC(=O)CSC[C@@H](C(N)=O)NC(=O)[C@H]([C@@H](C)c2c[nH]c3c(OC)cccc23)NC(=O)CN(C)C(=O)[C@H](Cc2ccc(O)cc2)NC(=O)[C@H](Cc2ccc(C(N)=O)cc2)NC(=O)[C@](C)(CO)NC(=O)[C@H](Cc2c[nH]c3c(Cl)cccc23)NC(=O)[C@H](Cc2ccncc2)NC(=O)[C@H](CC(N)=O)NC(=O)[C@@H](C)N(CC)C(=O)[C@H](Cc2c[nH]c3ccccc23)NC(=O)[C@@H]2CC[C@@H](O)CN2C(=O)[C@H](Cc2ccncc2)NC1=O) [SEQ ID NO. 186]"
0.5 nM,0.44 nM,"cyclo([bhcLeu][FX1][4Pal][NMeS]W[NMeE]N[4Pal][Trp(7-Cl)][αMeS][Phe(4-COOH)]Y[Sar][Trp(βS-Me,7-OMe)]) (SMILES COc1cccc2c([C@H](C)[C@@H]3NC(=O)CN(C)C(=O)[C@H](Cc4ccc(O)cc4)NC(=O)[C@H](Cc4ccc(C(=O)O)cc4)NC(=O)[C@](C)(CO)NC(=O)[C@H](Cc4c[nH]c5c(Cl)cccc45)NC(=O)[C@H](Cc4ccncc4)NC(=O)[C@H](CC(N)=O)NC(=O)[C@H](CCC(=O)O)N(C)C(=O)[C@H](Cc4c[nH]c5ccccc45)NC(=O)[C@H](CO)N(C)C(=O)[C@H](Cc4ccncc4)NC(=O)[C@H](CCC(=O)Nc4cccnc4)NC(=O)[C@@H]4CC[C@@H](C4)NC3=O)c[nH]c12) [SEQ ID NO. 166]"
0.95 nM,,{CH2CO}-[LysN3][4Pal][Dap][Trp(βS-Me)][dP]N[4Pal][Trp(7-Cl)][αMeS][Phe(4-COOH)][Phe(4-CH2NH2)][Sar][αMeW]C-NH2 (thioether N-14) [SEQ ID NO. 245]
1.16 nM,,{CH2CO}-[Ahp′]Y[AlaPiperaz][Trp(βS-Me)][dP]N[4Pal][Trp(7-Cl)][αMeS][Phe(4-COOH)][3Pal][Sar][αMeW]C-NH2 (thioether N-14; reading uncertain; also: printed as cyclo(ClAc-Ahp-Y-AlaPiperaz-SbMeW-dP-N-4Pal-Trp7Cl-aMeS-Phe4COOH-3Pal-Sar-aMeW-C)-NH2) [SEQ ID NO. 226]
1 nM,0.73 nM,"{CH2CO}-[Nle]H[Val(3-OH)][Trp(7-aza)][NMeE]N[4Pal][Trp(7-Cl)][αMeS][Phe(4-COOH)]Y[Sar][Trp(βS-Me,7-OMe)]C-NH2 (thioether N-14; SMILES CCCC[C@@H]1NC(=O)CSC[C@@H](C(N)=O)NC(=O)[C@H]([C@@H](C)c2c[nH]c3c(OC)cccc23)NC(=O)CN(C)C(=O)[C@H](Cc2ccc(O)cc2)NC(=O)[C@H](Cc2ccc(C(=O)O)cc2)NC(=O)[C@](C)(CO)NC(=O)[C@H](Cc2c[nH]c3c(Cl)cccc23)NC(=O)[C@H](Cc2ccncc2)NC(=O)[C@H](CC(N)=O)NC(=O)[C@H](CCC(=O)O)N(C)C(=O)[C@H](Cc2c[nH]c3ncccc23)NC(=O)[C@H](C(C)(C)O)NC(=O)[C@H](Cc2c[nH]cn2)NC1=O) [SEQ ID NO. 217]"
